Measured values reported in article PMC12115182, “Inhibition of RPA32 and Cytotoxic Effects of the Carnivorous Plant Sarracenia purpurea Root Extract in Non-Small-Cell Lung Cancer Cells”.

Target: huRPA32 (human RPA32) (human, UniProt P15927 1-270)
Assay: EMSA; [Protein]50 by linear interpolation; DNA 30 fmol/uL; no extract; 40 mM Tris-HCl pH 7.5, 50 mM NaCl, 37 C, 60 min; 8% native PAGE in TBE, 100 V 1 h
Conditions: protein: recombinant; single-stranded

huRPA32 (human RPA32), sequence (P15927 whole entry): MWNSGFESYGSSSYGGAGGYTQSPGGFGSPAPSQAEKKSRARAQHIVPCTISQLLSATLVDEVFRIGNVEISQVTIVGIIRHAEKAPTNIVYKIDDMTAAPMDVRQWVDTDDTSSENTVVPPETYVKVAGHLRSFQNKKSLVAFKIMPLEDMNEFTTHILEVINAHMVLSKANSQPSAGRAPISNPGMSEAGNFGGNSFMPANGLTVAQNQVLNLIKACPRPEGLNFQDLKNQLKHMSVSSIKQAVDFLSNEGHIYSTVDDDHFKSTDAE

B1: dT25 (ssDNA)
DNA: TTTTTTTTTTTTTTTTTTTTTTTTT
In the case of B1, the “apparent K (half saturation)” value is reported as 5.7 ± 0.6 µM.
